Assay: soluble on expression in E. coli; label from the status in PepcDB or PDB records

| Sequence | soluble on expression in E. coli |
| --- | --- |
| MAHHHHHHMGKKAEFARSRFKEVRQKREERMQRSRTERDRRHGIDKLERKIGKVVVQRPLPNEAQQALLLAQFAQACRLVAPSTDMCILMRHYAKVAEAAEQKSKSTTMVTTSAPSAKSTTRKRKRDEAEEEEEEAPAAGATFLDTVADALLQTQNAPAVIEEAAASAKDGENALDDDDDDDDTVTVLQDILQDDNGRRVVATLLASLNAVHSSKCEAVAKAVLEQFEENEHLPQHHVACRVMSALAQFGSDPTRQGVLNLLRQRSTTIEGVERLLSDRHTAGTIEQLLKSYSRETAAWLCEALSLSTPVTSPSAAEAGGKKKKAAKQRDAAAEETASGERITTEKLMELVNGPVSGQVLLQLLHTDARRELLKRLPIVELLRSKRGTTFLTQLLMSTASVASSKGDEGREAEAVALFSDVLERLGNDLGEMAIDKRANFVVQALIQLLPAMGPQSAKQLERLERGLGGAAGISALVAHGNGVHVVLSLIDAALTLSSESAVEGLAEQLVTRQNVTDLLYHKHGSLVVRRLMPLISRKASKVGRLLQGMVEQDFSNLVYTEAGNLVVTAYLTALGKSGASLLAQKLAGGEELLSMCRSPYASHVVFTLFELVDPITHTLLCNALKAHVLPLSIHVNGRFIVEKMIAASRDVRESVSRQFLSLAQERGTQHVLCALLARMDARGKQACVEKTIMPNLTALATHQCGSIVLQKLMQAEPTVLSAVRQRLSANSLVRSDLAQNFFGKFVVQIAQQPEQEQPQ | soluble |
| MAHHHHHHMGLVDAYDRAATTEIANESLKDVRPDIVHQCLLALFDSDLAYQHRLRVYMSLFVRQGKVIEVSPALRPPRTYARFRGLMSALLRDGRICSTDGQVLMRLMPGSVAPIIPHGAEVVGLTNSLSSPVVTATQLAQQAVAAPVDDSLQGGIKHVTAFYCISCTDDCNLDGIDYITKSVCLSAYPMTAHVQCARVCEGHTRVEPASSVSGSAAGMGVGGGQAKTDRCSAPEPPKRRGEVFPANQAEDNKL | not soluble |
| MAHHHHHHMGRKKRKLNIDLKPFCYYCDREFDDEKILIQHQKAKHFKCLHCNRKLDMANGLVVHMMQVHKTNLKSVPNALPKRNDPELVIRGMNGVPTDIIEENLIKLKQKLGDKNIKRQQRVNWAQVTMAPTMEQFLKQAQMGNFSFPGFNSPVLPTNNNILTNTLDINNKSTLPNIPLYIPNTTSNINNINNINNLLQQPIGNNIIYPPKNSTLLNMPIPPINKNNINNHVVTNPNTFTPSNIPPNIAHKYSANINLLPTNINQHNPMYMPPGLYPPPIPPLNHPSIPPTHIPSSTYPTKMTPIQQKRPSTKWDVPEPSEGDPSILKHNKEDSTENKNEEPHKVSQDDDLKQNEQKDNQEKNHTQNCE | not soluble |
| MAHHHHHHMGTLEAQTQGPGSMIFNVLTIFPQMFPGPLGVSNLGSALKKGLWTLNVFDIRAFANNKHNTVDDTPYGGGPGMLLRADVLGRCIDEVLSLHPNTKLMFTSPRGVSFTQDIARQTMNFDNITLLCGRFEGIDERVVDFYKLQEVSIGDYVLSGGELAAMVIIDTCVRMVPGVIGNAESLKQESMEGSLEYPQYTRPASWKGMEVPEVLLTGNHGEIEKWRRNASLSITAARRPDLLKDRYGENDVE | soluble |
| MAHHHHHHMGTLEAQTQGPGSMLTYFHPDQSLHHPRTYFSRGRMRMPQEVPERAARLVAAAFAMGFPVREPDDFGIAPIAAVHDTHYLRFLETVHREWKAMPEDWGDEAMSNIFVREPNALRGVLAQAARHLADGSCPVGEHTWRAAYWSAQSALAAAAAVRDGAPAAYALCRPPGHHARVDAAGGFCYLNNAAIAAQALRARHARVAVLDTDMHHGQGIQEIFYARRDVLYVSIHGDPTNFYPAVAGFDDERGAGEGLGYNVNLPMPHGSSEAAFFERVDDALRELRRFAPDALVLSLGFDVYRDDPQSQVAVTTDGFGRLGHLIGALRLPTVIVQEGGYHIESLEANARSFFGGFGALRG | soluble |
| MAHHHHHHMGTLEAQTQGPGSMQVKLSQERAKELAENASFIASPGKGILAADESTGTIQKRFDNVGVENTEKNRAEYRSILFTTKGLGKYISGCILFEETLFQQAPNGQNMVDLLRAEGILPGIKVDKGLVTIPNTDEEVSTTGLDGLAERCQKYYNAGARFAKWRAVLSIDVKKNKPSNLSILETAHTLARYAAICQENGLVPIVEPEILADGDHSIEVCAEVTERVLAAVFKALNDHKVLLEGALLKPNMVTQGVDCKDKPAPQTVGFLTSRALRRTVPPALPGVMFLSGGQSESMATRHLNEINKCNKHPWSLSFSYGRALQSSVLKTWNGSMSNAAAAQDVLMKLAQQNSEASLGSLKTDLSDDGESLFEAKYIY | soluble |
| MAHHHHHHMGWFRSSASPEAGTATAEAPAAAAEHGSQHRQPQPEANSPAPLTEAEQLDLLVAGARLDDTEAQDTARFLGSNRRHMYADGLLSCAAYTFSGLHHIQGQSSALTLLTMWTVGTTFLVDVAERKYLQESLQGTLRTAKTTSEAEKPLLLDQPPHNATPASTPRKAAVVPAMPTSSDSLSSAIKKPAPRDKEKLAEQQRKVFLTQAVASWLWMLASFQQFKVHKRLKWCGYSSWMGLGCAGYYTTRHLYNLLVK | soluble |
| MAHHHHHHMHDANRFGGRTAYLREIGPIDHKKKGRLFKRDLPTLQFNVDVWCAQQTLRKQWKGRDWDVVEMPFEMAPKELQRVVPEKYTDVPIMTDPARHDYMNIRRKVFDREDMQDALFASGGAGQSPYPAIQRVDKAAMTLDKYL | soluble |
| MAHHHHHHMHRASRIAAAPFKSVLRRHKHHPEGLPLYNEMSKQWLCREGERWWILDAKGEQLPRVAAVAAQYITGQHRPDFTPGMISGDHVIIVNIKDVVMVGDEWIRVPITWQTAYPGGKYRIRLTDMYERDPCMLMWWFLKDEVNRHFVRKLKTRVAPLEKAWLYEDSVHPHGEKNPRPLCWSDPVVRGWKYTDPQFIRRWKPNEFIT | not soluble |
| MAHHHHHHMHSRTAPPLPPHTFAQVLHDRFVHYNDGKNKQTNIKRRNANNLNSFSYTAARAQGVVPRVDSTLGLLWTWRWAGAYGVACVCVCLCAADKMSAARHSHPPPPSLSRCRFPPPALFIMHRAHTYLLCIAAHLLLSPPPPSSPSRFVFASSSLSCPGCAFSWVTRFVSSMLRRTLCCGMMQLHALPTPNPLCHTFTIPADSFESFVPQGQSCEVAHRGLAWVHPLSQGLFEQYPQELMSVFIAPRHVSISVYTNVDWSKIEWSISSFLGHYLIFTNACISPAKEYTLMEDDLELKDTDTEVLQCIKELLREQVRPMVQRDGGDVKLLNFNEKTGIVSLAMLGACKTCPSSQNTLKDGIERVMKHFVPEVTEVIEDKEHQFYEDYGLLFDSEKALFKEAARLDRERQAKLRHNLTPMVLSYEVLNEPDGD | not soluble |
| MAHHHHHHMHSSPSKKKDLSNGACPAKEKEASKRKQSFNDVELEIDDDIITHLSSRICNKNVTHKILKINNLIDDQMHDYIANGRASEISESNDESDAHEGVERAHLNLRNGYAGCQHGDESSSNTISNDLPERKAISSEQVPTYELNKEVQGKSKAKGKGKGKGELLSDDPHLEEPLAEGHTHFDRIKMMNLLGENTIVYNSRDDQNNVLFLCYDEKSEQCDVCDRYRKNYMSNMHPSSCVPLRGGAAMKGDAAINGNAPINGVAATNGAAAINGTAAIDALSDYFFVLGSTSNSRKYILKQSSLDFLSVRIHIDEKKIGCRKSHDPLTLTANIAVGKGLKLLNMIKTDSELSKQIAELSKGKKVVLLVGDEVIYCNNKIYEKPKNEKEASNFLKSYNNSKCYSYSSITLIELETEKIITGIDESIINVYDMDDSVVKKILDDSSIYFCAGALKIENTHMHRYIKVIKGNIDSIFGLSLNLLFHLVNFL | not soluble |
| MAHHHHHHMHTKHTRRPVDTHKRNTMPLIRPGMPKPPQGFDVVLAKLEEYDEQMKLATQEESKGVVGVTTRPRHSGGFGARKRMRDDDANAEDGTVAPPAEASSTVAAAESEAGTSTAGDDNAEAKEEPPIPPLWRMAAINRARTRYVFLAYYKQHIISKEVYDYCVDTRLIDGGLARRWRLPGYERLCCTACGVPGAASLAASITSKYALRDRQERRLTTSASQQRIHDTATCLCRVPAAQRRSKHFVACAACGCHGCCSADAMKGPKEGDGGEKTDKTREEPSVNAPGRGEA | not soluble |
| MAHHHHHHMIDLTGKTSLITGASSGIGSAIARLLHKLGSKVIISGSNEEKLKSLGNALKDNYTIEVCNLANKEECSNLISKTSNLDILVCNAGITSDTLAIRMKDQDFDKVIDINLKANFILNREAIKKMIQKRYGRIINISSIVGIAGNPGQANYCASKAGLIGMTKSLSYEVATRGITVNAVAPGFIKSDMTDKLNEKQREAIVQKIPLGTYGIPEDVAYAVAFLASNNASYITGQTLHVNGGMLMV | soluble |
| MAHHHHHHMIVDSAVTERVVLQQQQELDAAERRCAAAEQRLEVELQKTFWRFLTTSAPDAVAAANRKQQSLGWANGGDGAGADSSLYRAEVDVSRFAEVRKAASPNPHRCNTAVAPFSPVRLVPVRTIKLSNEVGDASAAAAASRTQSPSKRSQDSALQPIVLDISPVSALSRCLGCCSGTQLGAIASSVSSAAEEHLLRLAHTRHSVLLFIGSESAAMDVMQSCKAPELLLGAGHSCRDRFQPLANHPVLRVLFTTRLWGANVVLLWNPAQDAALAVAAQAVVEDALELAYAWDADMFSVAVLEGARLPSYAGAGGVSAVATGASSTSAAFFASQAVSMEVLRQLRNSVTRELLDTAGMRRARRWQGTATWMQQGIGSAAAATTGTHMCPRAVGVLYVSQSAQQEQENQLQHQEVSCTASSIRSNAASPLRGDNSIVSVMSSSFLFSPTSPASAFRGPCITFNTPLAIRAFLPLAEEYFIREQPSLVRGSSRGGGDGHHGVSEAASSSTLNQEGGGARGLLRRTASATATEDDDASFSSEKDARFSPASLSATSAPASSPAIDAIRASGSGGEAGLRRQPEMTLESLIQYAFGDLAEIL | not soluble |
| MAHHHHHHMIYGKDGKYPVGEILEYNNYNLSGQSLVEKKEREKLSIDYYEDLRKAAECHRQVRKHMQAFIKPGKKMIDIAQETERKTKELILAEKLKCGWGFPTGCSLNHCAAHYTPNYGDETVLKYDDVCKLDFGVHVNGYIIDCAFTIAFNEKYDNLIKATQDGTNTGIKEAGIDARMCDIGEAIQEAIESYEIELNQKIYPIKAISNLRGHSINKYIIHGGKCVPIVRQKEKNEIMEEGELFAIETFASTGKGYVNHENECSHYMRNPEKQFVPIRLNSAKTLLKVINDNFDTLPFCNRWLDDLGQTRHFMALKTLIDLNIVEPYPPLCDIKNSFTSQMEHTILLRPTCKEVLSRGPDF | soluble |
| MAHHHHHHMKETLVFATARQQFLQHGYAIFSAAIGASLIERLRPALTASTVARARCFIDVPDIESMLKSKSRLSDPLYTKVMARLQRRKYMLRRYREEKKRRKQLKEVVANFLNGREKEDLTGEELWKLSELLAKEAVSVPGKECRSTIKNDPQMLRAINEYRCNVWMTNKELENIVRDPSFWQPIGAIASDVGGVERPVLFADAPMFREPYGGPFGYHCTAPSIGVKTNGNQPLAVSLLVFTHRPDKQKMPLFVLKGSHRFVQDQYLRYVLPNVLSLPFLPMESHIPEQIKRFNFDSSVVGSPIEGGDAIGPGTVVVLNPHLMIGVGANASTERVAVYKLNLIAENAPPFLKAPSWITAWRSLPREVNFASPVVFPPFYDKTMSTTSAR | not soluble |
| MAHHHHHHMKLEEVKDIQKIERIGAHSHIRGLGLNDCLDARYCSEGMIGQMSARKAAGIVLRMIKEGRISGRAILLAGQPGTGKTAIAMGIAKALGEDTPFTHISGSEVYSLEMSKTEALTQAFRRSIGVRVKEESEVIEGEVVEIEIEKFNERDINNKNKKLGKMILKTTEMETLYDLGSKMIEALQKENITAGDVICIDKGTGKITKIGKSFARSKDYDAMDPNTLFVQCPEGELQKRKEVVHTVTLHDIDAINSRTQGFLALFSGDTGEIKNEIREHIDMKINEWQEDEKAEIVPGVLFIDEVHMLDIECFSYLNRALESEQSPIVIMATNRGITHIRGTDYKAPHGIPLDLLDRTLIIPTYPYKHQDILKILEQRAEEEDVDIDEYAKELLCKIASESSLRYALHLITLANLVSKKRKATEVTVQDVRRVYNLFIDVKRSTQYLIEYQNEFMFSELPKEELSVKEEDSSEEKRELHEKNSENSSTSN | soluble |

Reference: the DeepSol protein solubility set
